Test results as given in publication PMC5897841, “Development of a multipurpose scaffold for the display of peptide loops” (Protein Engineering, Design and Selection, 2017).
One block for each binder: values may come before it. Ends that are not written are not given here.

B2: Alexa Fluor 488-TPX2_((7–43)) peptide (peptide)
peptide: LSYSYDAPSDFINFSSLDDEGDTQNIDSWFEEKANLENLKGGGC(Alexa Fluor 488‑maleimide)QM
notes: residue before the TPX2 stretch in the printed peptide; TPX2, human, residues 7-43; C-terminal extension of the printed peptide with the cysteine that is labelled; As m10, labelled; the methods speak of 'free N-terminal cysteines' but the only cysteine of the printed peptide is near its C-terminus; also called Alexa Fluor 488-labeled TPX2 peptide; labeled wild-type TPX2 peptide; source: E. coli …

Columns and labels:
Settings in all cases: both partners purified
[1] = target: T1, Aurora A_(D274N) kinase domain (human, UniProt O14965 122-403, D274N); assay: ITC; itc200, 25°C, 10 mM HEPES pH 7.4, 500 mM NaCl, 0.05% P20; 50 μM titrant into 5 μM Aurora A D274N, 100 μM CK2β peptide or RAD-CK2β into 10 μM CK2α; single-site model
T1 construct: Aurora A kinase, human, kinase domain residues 122-403, kinase dead D274N; theoretical mass 33.8 kDa; Cloned into pHAT5 in frame with a C-terminal 6xHis-tag; also called kinase dead human Aurora A D274N mutant; source: E. coli BL21(DE3), purified (HisTrap HP, Superdex 75 SEC); not shown: His6, C-terminal, kept
T1 sequence (looked up): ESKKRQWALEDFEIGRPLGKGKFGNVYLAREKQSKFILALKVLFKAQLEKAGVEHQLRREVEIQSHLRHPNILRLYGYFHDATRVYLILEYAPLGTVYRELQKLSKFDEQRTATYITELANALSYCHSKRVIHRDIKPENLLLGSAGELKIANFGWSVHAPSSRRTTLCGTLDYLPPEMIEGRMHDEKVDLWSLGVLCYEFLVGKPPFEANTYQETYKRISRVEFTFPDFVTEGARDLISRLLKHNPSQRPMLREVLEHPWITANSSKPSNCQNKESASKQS

[2] = target: T1, Aurora A_(D274N) kinase domain; assay: SPR; Biacore T100, CM5, peptides or cRAD display proteins immobilised through their cysteine (240-400 RU), kinase as analyte 2.5 nM-2.5 μM, 25°C, 10 mM HEPES pH 7.4, 500 mM NaCl, 0.05% P20; 1:1 steady-state affinity model; CK2α data analysed at 200 s post-injection
[3] = target: T1, Aurora A_(D274N) kinase domain; assay: fluorescence polarisation; fluorescence anisotropy, direct titration of kinase (CK2α 2 nM-2 μM; Aurora A D274N 2 nM-1.5 μM) into labelled peptide or display protein; 10 mM HEPES pH 7.4, 500 mM NaCl, 1 mM DTT, 0.05% P20; room temperature; 1:1 model
[4] = target: B2; assay: fluorescence polarisation; fluorescence anisotropy, direct titration of Aurora A wild type into 10 nM Alexa Fluor 488-TPX2 peptide, 25°C, HEPES pH 7.4, 0.1 M Mg(CH3COO)2, 100 mM NaCl, 1 mM ATP, 1 mM DTT, 0.01% P20; quadratic single-site equation

Kd [1]: 115 nM | Kd [2]: 72 nM
B1: linear TPX2_((7–43)) peptide (peptide)
peptide: LSYSYDAPSDFINFSSLDDEGDTQNIDSWFEEKANLENLKGGGCQM
notes: residue before the TPX2 stretch in the printed peptide; TPX2, human, residues 7-43; C-terminal extension of the printed peptide with the cysteine handle; Used free in ITC and immobilised through the cysteine on CM5 in SPR; also called TPX2 peptide; TPX-2 peptide; source: E. coli BL21(DE3), KSI fusion (pET31b), inclusion bodies, Ni-NTA, CNBr cleavage, reverse-phase HPLC

Binder: B2
Kd [3]: 74 nM

Kd [4]: 2.1 nM
B3: Aurora A wild-type kinase domain (untagged) (domain or fragment)
chain: FEIGRPLGKGKFGNVYLAREKQSKFILALKVLFKAQLEKAGVEHQLRREVEIQSHLRHPNILRLYGYFHDATRVYLILEYAPLGTVYRELQKLSKFDEQRTATYITELANALSYCHSKRVIHRDIKPENLLLGSAGELKIADFGWSVHAPSSRRTTLCGTLDYLPPEMIEGRMHDEKVDLWSLGVLCYEFLVGKPPFEANTYQETYKRISRVEFTFPDFVTEGARDLISRLLKHNPSQRPMLREVLEHPWI
